This assay addresses human LAG-3, full length, on transfected cells (human) (UniProt P18627). Description: cell-based or functional assay.
UniProt P18627, sequence (P18627 23-525 limits assumed): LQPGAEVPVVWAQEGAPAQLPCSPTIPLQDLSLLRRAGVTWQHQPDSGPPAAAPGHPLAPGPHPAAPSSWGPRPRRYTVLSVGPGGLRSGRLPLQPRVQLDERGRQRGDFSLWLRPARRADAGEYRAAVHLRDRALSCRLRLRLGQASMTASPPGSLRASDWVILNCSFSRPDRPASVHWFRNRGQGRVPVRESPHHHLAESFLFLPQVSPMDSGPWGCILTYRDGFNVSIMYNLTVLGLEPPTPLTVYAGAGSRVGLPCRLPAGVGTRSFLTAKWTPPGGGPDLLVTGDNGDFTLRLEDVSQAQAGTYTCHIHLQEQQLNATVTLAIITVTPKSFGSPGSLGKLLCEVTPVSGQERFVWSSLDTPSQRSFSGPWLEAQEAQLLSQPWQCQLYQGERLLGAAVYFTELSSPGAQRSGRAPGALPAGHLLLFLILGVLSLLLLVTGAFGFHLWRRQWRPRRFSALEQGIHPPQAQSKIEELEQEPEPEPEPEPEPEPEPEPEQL

B1: BMK7 (antibody, from another filing, V domains shown)
VH: QVQLVESGGGVVQPGRSLRLSCVASGFTFSSYGMHWVRQAPGKGLEWVAIIWYDGSNKYYADSVKGRFTISRDNSKNTQYLQMNSLRAEDTAVYYCASVATSGDFDYYGMDVWGQGTTVTVSS
VL: EIVLTQSPATLSLSPGERTTLSCRASQRISTYLAWYQQKPGQAPRLLIYDASKRATGIPARFSGSGSGTGFTLTISSLEPEDFAVYYCQQRSNWPLTFGGGTKVEIK
As to B1, the EC50(nM), IL-2 luciferase reporter in Jurkat cells expressing human LAG-3 with Raji cells and SEE was found to be 2.65 nM.

(Values after CN115057931A.)
